# Where two headings read alike, the source gives them in different places.
# Assays:
# human CD28 [1] = molecular target: T1, human CD28 (human, UniProt P10747 19-152); experiment: Octet; avid
# cynomolgus PDL1 antigen [2] = molecular target: T2, cynomolgus PDL1 antigen (cynomolgus, UniProt G7PSE7 19-238); experiment: SPR (Biacore); EXP2
# human PDL1 antigen [3] = molecular target: T3, human PDL1 antigen (human, UniProt Q9NZQ7 19-238)
# cynomolgus PDL1 antigen [4] = molecular target: T2, cynomolgus PDL1 antigen; experiment: SPR (Biacore); EXP1
# human PDL1 antigen [5] = molecular target: T3, human PDL1 antigen; experiment: SPR (Biacore); EXP1
# human CD28 [6] = molecular target: T1, human CD28; experiment: BLI (Octet); average of HIS1K and SA capture
# human CD28 [7] = molecular target: T1, human CD28; experiment: -; scFv VHVL in 1+1 Fab-scFv-Fc bsAb
# human CD28 [8] = molecular target: T1, human CD28
binder,measurement,setting,value
"XENP28428 (antibody, V domains shown) VH: EVQLLESGGGLVQPGGSLRLSCAASGFTFSSYAMSWVRQAPGKGLEWVSTISGSGDSTYYADSVKGRFTISRDNSKNTLYLQMNSLRAEDTAVYYCAKSGPGLRQVGFDYWGQGTLVTVSS VL: not shown",Kd,human CD28 [1],14.5 nM
αPDL1×αCD28 bsAb with PDL1 binding domain 2G4_H1.12_L1.66 and CD28 binding domain 1A7_H1.14_L1.71 (bispecific antibody) heavy: EVQLLESGGGLVQPGGSLRLSCAASGFTFSVYDMSWVRQAPGKRLEWVSTISSGGSFTHYPDSVKGRFTISRDNSKNTLYLQMNSLRAEDTAVYYCVRRSLDWYFDVWGAGTTVTVSSASTKGPSVFPLAPSSKSTSGGTAALGCLVKDYFPEPVTVSWNSGALTSGVHTFPAVLQSSGLYSLSSVVTVPSSSLGTQTYICNVNHKPSDTKVDKKVEPKSCDKTHTCPPCPAPPVAGPSVFLFPPKPKDTLMISRTPEVTCVVVDVKHEDPEVKFNWYVDGVEVHNAKTKPREEEYNSTYRVVSVLTVLHQDWLNGKEYKCKVSNKALPAPIEKTISKAKGQPREPQVYTLPPSREEMTKNQVSLTCDVSGFYPSDIAVEWESDGQPENNYKTTPPVLDSDGSFFLYSKLTVDKSRWEQGDVFSCSVMHEALHNHYTQKSLSLSPGK scFv-Fc: not shown light: EIVLTQSPGTLSLSPGERATLSCRVSSSIQSTNLHWYQQKPGQSPRPLIYGTSNLATGVPVRFSGSGSGTDYTLTISRLEPEDFAVYYCQQWSSYPLYTFGGGTKVEIKRTVAAPSVFIFPPSDEQLKSGTASVVCLLNNFYPREAKVQWKVDNALQSGNSQESVTEQDSKDSTYSLSSTLTLSKADYEKHKVYACEVTHQGLSSPVTKSFNRGEC,Kd,cynomolgus PDL1 antigen [2],1.7 nM
XENP37559 (bispecific antibody) heavy: EVQLLESGGGLVQPGGSLRLSCAASGFTFSSYDMSWVRQAPGKRLEWVSTISSGGSFTHYPDSVKGRFTISRDNSKNTLYLQMNSLRAEDTAVYYCVRRSGDWYFDVWGAGTTVTVSSASTKGPSVFPLAPSSKSTSGGTAALGCLVKDYFPEPVTVSWNSGALTSGVHTFPAVLQSSGLYSLSSVVTVPSSSLGTQTYICNVNHKPSDTKVDKKVEPKSCDKTHTCPPCPAPPVAGPSVFLFPPKPKDTLMISRTPEVTCVVVDVKHEDPEVKFNWYVDGVEVHNAKTKPREEEYNSTYRVVSVLTVLHQDWLNGKEYKCKVSNKALPAPIEKTISKAKGQPREPQVYTLPPSREEMTKNQVSLTCDVSGFYPSDIAVEWESDGQPENNYKTTPPVLDSDGSFFLYSKLTVDKSRWEQGDVFSCSVMHEALHNHYTQKSLSLSPGK scFv-Fc: not shown light: EIVLTQSPGTLSLSPGERATLSCRVSSSISSSNLHWYQQKPGQSPRPLIYGTSNLASGVPVRFSGSGSGTDYTLTISRLEPEDFAVYYCQQWSSYPLYTFGGGTKVEIKRTVAAPSVFIFPPSDEQLKSGTASVVCLLNNFYPREAKVQWKVDNALQSGNSQESVTEQDSKDSTYSLSSTLTLSKADYEKHKVYACEVTHQGLSSPVTKSFNRGEC,Kd,human PDL1 antigen [3],2.6 nM
same,Kd,cynomolgus PDL1 antigen [4],2.2 nM
same,Kd,human PDL1 antigen [5],2.6 nM
αPDL1×αCD28 bsAb with PDL1 binding domain 2G4_H1.12_L1.68 and CD28 binding domain 1A7_H1.14_L1.71 (bispecific antibody) heavy: EVQLLESGGGLVQPGGSLRLSCAASGFTFSVYDMSWVRQAPGKRLEWVSTISSGGSFTHYPDSVKGRFTISRDNSKNTLYLQMNSLRAEDTAVYYCVRRSLDWYFDVWGAGTTVTVSSASTKGPSVFPLAPSSKSTSGGTAALGCLVKDYFPEPVTVSWNSGALTSGVHTFPAVLQSSGLYSLSSVVTVPSSSLGTQTYICNVNHKPSDTKVDKKVEPKSCDKTHTCPPCPAPPVAGPSVFLFPPKPKDTLMISRTPEVTCVVVDVKHEDPEVKFNWYVDGVEVHNAKTKPREEEYNSTYRVVSVLTVLHQDWLNGKEYKCKVSNKALPAPIEKTISKAKGQPREPQVYTLPPSREEMTKNQVSLTCDVSGFYPSDIAVEWESDGQPENNYKTTPPVLDSDGSFFLYSKLTVDKSRWEQGDVFSCSVMHEALHNHYTQKSLSLSPGK scFv-Fc: not shown light: EIVLTQSPGTLSLSPGERATLSCRVSSSIQSTNLHWYQQKPGQSPRPLIYGTSNLASGVPVRFSGSGSGTDYTLTISRLEPEDFAVYYCQQWSSYPLYTFGGGTKVEIKRTVAAPSVFIFPPSDEQLKSGTASVVCLLNNFYPREAKVQWKVDNALQSGNSQESVTEQDSKDSTYSLSSTLTLSKADYEKHKVYACEVTHQGLSSPVTKSFNRGEC,Kd,cynomolgus PDL1 antigen [2],1.5 nM
αPDL1×αCD28 bsAb with PDL1 binding domain 2G4_H1.12_L1.14 and CD28 binding domain 1A7_H1.14_L1.71 (bispecific antibody) heavy: EVQLLESGGGLVQPGGSLRLSCAASGFTFSVYDMSWVRQAPGKRLEWVSTISSGGSFTHYPDSVKGRFTISRDNSKNTLYLQMNSLRAEDTAVYYCVRRSLDWYFDVWGAGTTVTVSSASTKGPSVFPLAPSSKSTSGGTAALGCLVKDYFPEPVTVSWNSGALTSGVHTFPAVLQSSGLYSLSSVVTVPSSSLGTQTYICNVNHKPSDTKVDKKVEPKSCDKTHTCPPCPAPPVAGPSVFLFPPKPKDTLMISRTPEVTCVVVDVKHEDPEVKFNWYVDGVEVHNAKTKPREEEYNSTYRVVSVLTVLHQDWLNGKEYKCKVSNKALPAPIEKTISKAKGQPREPQVYTLPPSREEMTKNQVSLTCDVSGFYPSDIAVEWESDGQPENNYKTTPPVLDSDGSFFLYSKLTVDKSRWEQGDVFSCSVMHEALHNHYTQKSLSLSPGK scFv-Fc: not shown light: EIVLTQSPGTLSLSPGERATLSCRVSSSIQSSNLHWYQQKPGQSPRPLIYGTSNLASGVPVRFSGSGSGTDYTLTISRLEPEDFAVYYCQQWSSYPLYTFGGGTKVEIKRTVAAPSVFIFPPSDEQLKSGTASVVCLLNNFYPREAKVQWKVDNALQSGNSQESVTEQDSKDSTYSLSSTLTLSKADYEKHKVYACEVTHQGLSSPVTKSFNRGEC,Kd,cynomolgus PDL1 antigen [2],0.8 nM
XENP36233 (bispecific antibody) heavy: EVQLLESGGGLVQPGGSLRLSCAASGFTFSSYDMSWVRQAPGKRLEWVSTISSGGSFTHYPDSVKGRFTISRDNSKNTLYLQMNSLRAEDTAVYYCVRRSGDWYFDVWGAGTTVTVSSASTKGPSVFPLAPSSKSTSGGTAALGCLVKDYFPEPVTVSWNSGALTSGVHTFPAVLQSSGLYSLSSVVTVPSSSLGTQTYICNVNHKPSDTKVDKKVEPKSCDKTHTCPPCPAPPVAGPSVFLFPPKPKDTLMISRTPEVTCVVVDVKHEDPEVKFNWYVDGVEVHNAKTKPREEEYNSTYRVVSVLTVLHQDWLNGKEYKCKVSNKALPAPIEKTISKAKGQPREPQVYTLPPSREEMTKNQVSLTCDVSGFYPSDIAVEWESDGQPENNYKTTPPVLDSDGSFFLYSKLTVDKSRWEQGDVFSCSVMHEALHNHYTQKSLSLSPGK scFv-Fc: not shown light: EIVLTQSPGTLSLSPGERATLSCRVSSSISSSNLHWYQQKPGQSPRPLIYGTSNLASGVPVRFSGSGSGTDYTLTISRLEPEDFAVYYCQQWSSYPLYTFGGGTKVEIKRTVAAPSVFIFPPSDEQLKSGTASVVCLLNNFYPREAKVQWKVDNALQSGNSQESVTEQDSKDSTYSLSSTLTLSKADYEKHKVYACEVTHQGLSSPVTKSFNRGEC,Kd,human CD28 [6],229 nM
same,Kd,human CD28 [7],229 nM
XENP38514 (bispecific antibody) heavy: EVQLLESGGGLVQPGGSLRLSCAASGFTFSVYDMSWVRQAPGKRLEWVSTISSGGSFTHYPDSVKGRFTISRDNSKNTLYLQMNSLRAEDTAVYYCVRRSLDWYFDVWGAGTTVTVSSASTKGPSVFPLAPSSKSTSGGTAALGCLVKDYFPEPVTVSWNSGALTSGVHTFPAVLQSSGLYSLSSVVTVPSSSLGTQTYICNVNHKPSDTKVDKKVEPKSCDKTHTCPPCPAPPVAGPSVFLFPPKPKDTLMISRTPEVTCVVVDVKHEDPEVKFNWYVDGVEVHNAKTKPREEEYNSTYRVVSVLTVLHQDWLNGKEYKCKVSNKALPAPIEKTISKAKGQPREPQVYTLPPSREEMTKNQVSLTCDVSGFYPSDIAVEWESDGQPENNYKTTPPVLDSDGSFFLYSKLTVDKSRWEQGDVFSCSVMHEALHNHYTQKSLSLSPGK scFv-Fc: not shown light: EIVLTQSPGTLSLSPGERATLSCRVSSSIQSTNLHWYQQKPGQSPRPLIYGTSVLATGVPVRFSGSGSGTDYTLTISRLEPEDFAVYYCQQWSSYPLYTFGGGTKVEIKRTVAAPSVFIFPPSDEQLKSGTASVVCLLNNFYPREAKVQWKVDNALQSGNSQESVTEQDSKDSTYSLSSTLTLSKADYEKHKVYACEVTHQGLSSPVTKSFNRGEC,Kd,human CD28 [8],180 nM
same,Kd,cynomolgus PDL1 antigen [4],0.38 nM
XENP37560 (bispecific antibody) heavy: EVQLLESGGGLVQPGGSLRLSCAASGFTFSSYDMSWVRQAPGKRLEWVSTISSGGSFTHYPDSVKGRFTISRDNSKNTLYLQMNSLRAEDTAVYYCVRRSGDWYFDVWGAGTTVTVSSASTKGPSVFPLAPSSKSTSGGTAALGCLVKDYFPEPVTVSWNSGALTSGVHTFPAVLQSSGLYSLSSVVTVPSSSLGTQTYICNVNHKPSDTKVDKKVEPKSCDKTHTCPPCPAPPVAGPSVFLFPPKPKDTLMISRTPEVTCVVVDVKHEDPEVKFNWYVDGVEVHNAKTKPREEEYNSTYRVVSVLTVLHQDWLNGKEYKCKVSNKALPAPIEKTISKAKGQPREPQVYTLPPSREEMTKNQVSLTCDVSGFYPSDIAVEWESDGQPENNYKTTPPVLDSDGSFFLYSKLTVDKSRWEQGDVFSCSVMHEALHNHYTQKSLSLSPGK scFv-Fc: not shown light: EIVLTQSPGTLSLSPGERATLSCRVSSSISSSNLHWYQQKPGQSPRPLIYGTSNLASGVPVRFSGSGSGTDYTLTISRLEPEDFAVYYCQQWSSYPLYTFGGGTKVEIKRTVAAPSVFIFPPSDEQLKSGTASVVCLLNNFYPREAKVQWKVDNALQSGNSQESVTEQDSKDSTYSLSSTLTLSKADYEKHKVYACEVTHQGLSSPVTKSFNRGEC,Kd,human CD28 [6],91.6 nM
same,Kd,human CD28 [7],91.6 nM

# Source: patent US20220135684A1 (published 2022)
